Measurements: article doi:10.1101/2021.01.21.427698 (bioRxiv, 2021)

Experiments:
native gel or EMSA = target: the molecule itself; assay: native gel or EMSA
[1] = target: the molecule itself; assay: spinning disk fluorescence microscopy of septin polymerisation
[2] = target: the molecule itself; assay: negative-stain electron microscopy of septin polymerisation

B1: human SEPT9_i1 with a TEV-cleavable C-terminal Strep-tag-II (natural protein)
chain: MKKSYSGGTRTSSGRLRRLGDSSGPALKRSFEVEEVETPNSTPPRRVQTPLLRATVASSTQKFQDLGVKNSEPSARHVDSLSQRSPKASLRRVELSGPKAAEPVSRRTELSIDISSKQVENAGAIGPSRFGLKRAEVLGHKTPEPAPRRTEITIVKPQESAHRRMEPPASKVPEVPTAPATDAAPKRVEIQMPKPAEAPTAPSPAQTLENSEPAPVSQLQSRLEPKPQPPVAEATPRSQEATEAAPSCVGDMADTPRDAGLKQAPASRNEKAPVDFGYVGIDSILEQMRRKAMKQGFEFNIMVVGQSGLGKSTLINTLFKSKISRKSVQPTSEERIPKTIEIKSITHDIEEKGVRMKLTVIDTPGFGDHINNENCWQPIMKFINDQYEKYLQEEVNINRKKRIPDTRVHCCLYFIPATGHSLRPLDIEFMKRLSKVVNIVPVIAKADTLTLEERVHFKQRITADLLSNGIDVYPQKEFDEDSEDRLVNEKFREMIPFAVVGSDHEYQVNGKRILGRKTKWGTIEVENTTHCEFAYLRDLLIRTHMQNIKDITSSIHFEAYRVKRLNEGSSAMANGVEEKEPEAPEM
Native gel or EMSA
  binding result: binds

B2: SEPT2-msfGFP human septin octamers containing SEPT9_i1 (complex)
chain 1: MSKQQPTQFINPETPGYVGFANLPNQVHRKSVKKGFEFTLMVVGESGLGKSTLINSLFLTDLYPERVIPGAAEKIERTVQIEASTVEIEERGVKLRLTVVDTPGYGDAINCRDCFKTIISYIDEQFERYLHDESGLNRRHIIDNRVHCCFYFISPFGHGLKPLDVAFMKAIHNKVNIVPVIAKADTLTLKERERLKKRILDEIEEHNIKIYHLPDAESDEDEDFKEQTRLLKASIPFSVVGSNQLIEAKGKKVRGRLYPWGVVEVENPEHNDFLKLRTMLITHMQDLQEVTQDLHYENFRSERLKRGGRKVENEDMNKDQILLEKEAELRRMQEMIARMQAQMQMQMQGGDGDGGALGHHV
chain 2: MAATDIARQVGEGCRTVPLAGHVGFDSLPDQLVNKSVSQGFCFNILCVGETGLGKSTLMDTLFNTKFEGEPATHTQPGVQLQSNTYDLQESNVRLKLTIVSTVGFGDQINKEDSYKPIVEFIDAQFEAYLQEELKIRRVLHTYHDSRIHVCLYFIAPTGHSLKSLDLVTMKKLDSKVNIIPIIAKADAISKSELTKFKIKITSELVSNGVQIYQFPTDDESVAEINGTMNAHLPFAVIGSTEELKIGNKMMRARQYPWGTVQVENEAHCDFVKLREMLIRVNMEDLREQTHTRHYELYRRCKLEEMGFKDTDPDSKPFSLQETYEAKRNEFLGELQKKEEEMRQMFVQRVKEKEAELKEAEKELHEKFDRLKKLHQDEKKKLEDKKKSLDDEVNAFKQRKTAAELLQSQGSQAGGSQTLKRDKEKKN
chain 3: MSVSARSAAAEERSVNSSTMVAQQKNLEGYVGFANLPNQVYRKSVKRGFEFTLMVVGESGLGKSTLINSLFLTDLYSPEYPGPSHRIKKTVQVEQSKVLIKEGGVQLLLTIVDTPGFGDAVDNSNCWQPVIDYIDSKFEDYLNAESRVNRRQMPDNRVQCCLYFIAPSGHGLKPLDIEFMKRLHEKVNIIPLIAKADTLTPEECQQFKKQIMKEIQEHKIKIYEFPETDDEEENKLVKKIKDRLPLAVVGSNTIIEVNGKRVRGRQYPWGVAEVENGEHCDFTILRNMLIRTHMQDLKDVTNNVHYENYRSRKLAAVTYNGVDNNKNKGQLTKSPLAQMEEERREHVAKMKKMEMEMEQVFEMKVKEKVQKLKDSEAELQRRHEQMKKNLEAQHKELEEKRRQFEDEKANWEAQQRILEQQNSSRTLEKNKKKGKIF
chain 4: MKKSYSGGTRTSSGRLRRLGDSSGPALKRSFEVEEVETPNSTPPRRVQTPLLRATVASSTQKFQDLGVKNSEPSARHVDSLSQRSPKASLRRVELSGPKAAEPVSRRTELSIDISSKQVENAGAIGPSRFGLKRAEVLGHKTPEPAPRRTEITIVKPQESAHRRMEPPASKVPEVPTAPATDAAPKRVEIQMPKPAEAPTAPSPAQTLENSEPAPVSQLQSRLEPKPQPPVAEATPRSQEATEAAPSCVGDMADTPRDAGLKQAPASRNEKAPVDFGYVGIDSILEQMRRKAMKQGFEFNIMVVGQSGLGKSTLINTLFKSKISRKSVQPTSEERIPKTIEIKSITHDIEEKGVRMKLTVIDTPGFGDHINNENCWQPIMKFINDQYEKYLQEEVNINRKKRIPDTRVHCCLYFIPATGHSLRPLDIEFMKRLSKVVNIVPVIAKADTLTLEERVHFKQRITADLLSNGIDVYPQKEFDEDSEDRLVNEKFREMIPFAVVGSDHEYQVNGKRILGRKTKWGTIEVENTTHCEFAYLRDLLIRTHMQNIKDITSSIHFEAYRVKRLNEGSSAMANGVEEKEPEAPEM
[1]
  binding result: binds
[2]
  binding result: binds

B3: recombinant Drosophila septin hexamers (DSep1-msfGFP, DSep2, Peanut) (complex)
chain 1: MADTKGFSSIETPGYVGFANLPNQVHRKSVKKGFEFTLMVVGESGLGKSTLVNSLFLTDLYPERIIPDAIEKQKQTVKLEASTVEIEERGVKLRLTVVDTPGFGDAIDNSNSFGAILEYIDEQYERFLRDESGLNRRNIVDNRIHCCFYFISPFGHGLKPLDVEFMKKLHSKVNIVPVIAKADCLTKKEILRLKCRIMQEIESHGIKIYPLPDCDSDEDEDYKEQVKQLKEAVPFAVCGANTLLEVKGKKVRGRLYPWGVVEVENPDHCDFIKLRTMLITHMQDLQEVTQEVHYENYRSDRLAKGIKGKENGVKAERDSSSQVVSNSVLGEKDRILQEKEAELRRMQEMLAQMQARMQAQQ
chain 2: MSVEVDFVDKKEVHLRTLKQSGHVGFDSLPDQLVNKSVQNGFVFNVMCIGETGLGKSTLMDTLFNTSFESTPSPHTLPSVKLKAHTYELQESNVRLKLTICDTVGYGDQINKDDSFKAVVDYIDAQFENYLQEELKIKRSLVTCHDSRIHICLYFICPTGHGLKSLDLVCMKKLDSKVNIIPVIAKADTISKVELQRFKAKIIQELNANGVHIYQFPTDDETVAETNTSMNSHIPFAVVGSTEFIKVGNKLIRARQYPWGTVQVENETHCDFVKLREMLIRTNMEDMREKTHTRHYELYRQKRLEQMGFSDVDSDNKPISFQQTFEAKRSNHLAELQSKEEEVRQMFVQRVKEKEAELKESEKDLHAKFEKLKRDHAEEKRKLEESRKALEEDYLDFQRRKQQLATAHHTLTLGKSKKK
chain 3: MNSPRSNAVNGGSGGAISALPSTLAQLALRDKQQAASASASSATNGSSGSESLVGVGGRPPNQPPSVPVAASGKLDTSGGGASNGDSNKLTHDLQEKEHQQAQKPQKPPLPVRQKPMEIAGYVGFANLPNQVYRKAVKRGFEFTLMVVGASGLGKSTLINSMFLSDIYNAEQYPGPSLRKKKTVAVEATKVMLKENGVNLTLTVVDTPGFGDAVDNSNCWVPILEYVDSKYEEYLTAESRVYRKTISDSRVHCCLYFIAPSGHGLLPLDIACMQSLSDKVNLVPVIAKADTMTPDEVHLFKKQILNEIAQHKIKIYDFPATLEDAAEEAKTTQNLRSRVPFAVVGANTIIEQDGKKVRGRRYPWGLVEVENLTHCDFIALRNMVIRTHLQDLKDVTNNVHYENYRCRKLSELGLVDGKARLSNKNPLTQMEEEKREHEQKMKKMEAEMEQVFDMKVKEKMQKLRDSELELARRHEERKKALELQIRELEEKRREFEREKKEWEDVNHVTLEELKRRSLGANSSTDNVDGKKEKKKKGLF
[1]
  binding result: binds

B4: SEPT2-msfGFP human septin hexamers (complex)
chain 1: MSKQQPTQFINPETPGYVGFANLPNQVHRKSVKKGFEFTLMVVGESGLGKSTLINSLFLTDLYPERVIPGAAEKIERTVQIEASTVEIEERGVKLRLTVVDTPGYGDAINCRDCFKTIISYIDEQFERYLHDESGLNRRHIIDNRVHCCFYFISPFGHGLKPLDVAFMKAIHNKVNIVPVIAKADTLTLKERERLKKRILDEIEEHNIKIYHLPDAESDEDEDFKEQTRLLKASIPFSVVGSNQLIEAKGKKVRGRLYPWGVVEVENPEHNDFLKLRTMLITHMQDLQEVTQDLHYENFRSERLKRGGRKVENEDMNKDQILLEKEAELRRMQEMIARMQAQMQMQMQGGDGDGGALGHHV
chain 2: MAATDIARQVGEGCRTVPLAGHVGFDSLPDQLVNKSVSQGFCFNILCVGETGLGKSTLMDTLFNTKFEGEPATHTQPGVQLQSNTYDLQESNVRLKLTIVSTVGFGDQINKEDSYKPIVEFIDAQFEAYLQEELKIRRVLHTYHDSRIHVCLYFIAPTGHSLKSLDLVTMKKLDSKVNIIPIIAKADAISKSELTKFKIKITSELVSNGVQIYQFPTDDESVAEINGTMNAHLPFAVIGSTEELKIGNKMMRARQYPWGTVQVENEAHCDFVKLREMLIRVNMEDLREQTHTRHYELYRRCKLEEMGFKDTDPDSKPFSLQETYEAKRNEFLGELQKKEEEMRQMFVQRVKEKEAELKEAEKELHEKFDRLKKLHQDEKKKLEDKKKSLDDEVNAFKQRKTAAELLQSQGSQAGGSQTLKRDKEKKN
chain 3: MSVSARSAAAEERSVNSSTMVAQQKNLEGYVGFANLPNQVYRKSVKRGFEFTLMVVGESGLGKSTLINSLFLTDLYSPEYPGPSHRIKKTVQVEQSKVLIKEGGVQLLLTIVDTPGFGDAVDNSNCWQPVIDYIDSKFEDYLNAESRVNRRQMPDNRVQCCLYFIAPSGHGLKPLDIEFMKRLHEKVNIIPLIAKADTLTPEECQQFKKQIMKEIQEHKIKIYEFPETDDEEENKLVKKIKDRLPLAVVGSNTIIEVNGKRVRGRQYPWGVAEVENGEHCDFTILRNMLIRTHMQDLKDVTNNVHYENYRSRKLAAVTYNGVDNNKNKGQLTKSPLAQMEEERREHVAKMKKMEMEMEQVFEMKVKEKVQKLKDSEAELQRRHEQMKKNLEAQHKELEEKRRQFEDEKANWEAQQRILEQQNSSRTLEKNKKKGKIF
[1]
  binding result: binds
[2]
  binding result: binds

B5: human SEPT9_i3 with a TEV-cleavable C-terminal Strep-tag-II (natural protein)
chain: MERDRISALKRSFEVEEVETPNSTPPRRVQTPLLRATVASSTQKFQDLGVKNSEPSARHVDSLSQRSPKASLRRVELSGPKAAEPVSRRTELSIDISSKQVENAGAIGPSRFGLKRAEVLGHKTPEPAPRRTEITIVKPQESAHRRMEPPASKVPEVPTAPATDAAPKRVEIQMPKPAEAPTAPSPAQTLENSEPAPVSQLQSRLEPKPQPPVAEATPRSQEATEAAPSCVGDMADTPRDAGLKQAPASRNEKAPVDFGYVGIDSILEQMRRKAMKQGFEFNIMVVGQSGLGKSTLINTLFKSKISRKSVQPTSEERIPKTIEIKSITHDIEEKGVRMKLTVIDTPGFGDHINNENCWQPIMKFINDQYEKYLQEEVNINRKKRIPDTRVHCCLYFIPATGHSLRPLDIEFMKRLSKVVNIVPVIAKADTLTLEERVHFKQRITADLLSNGIDVYPQKEFDEDSEDRLVNEKFREMIPFAVVGSDHEYQVNGKRILGRKTKWGTIEVENTTHCEFAYLRDLLIRTHMQNIKDITSSIHFEAYRVKRLNEGSSAMANGVEEKEPEAPEM
Native gel or EMSA
  binding result: binds
